Measured values published in publication PMC12280161, “Reconstitution of circadian clock in synthetic cells reveals principles of timekeeping” (Nature Communications, 2025).

T1: KaiC (FLAG-seKaiC-1-519) (Synechococcus elongatus, UniProt Q79PF4 1-519, initially hyperphosphorylated due to its preparation and storage at low temperatures (residues not given))
T1 construct: KaiC of Synechococcus elongatus, residues 1-519; In the model KaiC is assigned as hexamers; not measured here
T1 sequence (looked up): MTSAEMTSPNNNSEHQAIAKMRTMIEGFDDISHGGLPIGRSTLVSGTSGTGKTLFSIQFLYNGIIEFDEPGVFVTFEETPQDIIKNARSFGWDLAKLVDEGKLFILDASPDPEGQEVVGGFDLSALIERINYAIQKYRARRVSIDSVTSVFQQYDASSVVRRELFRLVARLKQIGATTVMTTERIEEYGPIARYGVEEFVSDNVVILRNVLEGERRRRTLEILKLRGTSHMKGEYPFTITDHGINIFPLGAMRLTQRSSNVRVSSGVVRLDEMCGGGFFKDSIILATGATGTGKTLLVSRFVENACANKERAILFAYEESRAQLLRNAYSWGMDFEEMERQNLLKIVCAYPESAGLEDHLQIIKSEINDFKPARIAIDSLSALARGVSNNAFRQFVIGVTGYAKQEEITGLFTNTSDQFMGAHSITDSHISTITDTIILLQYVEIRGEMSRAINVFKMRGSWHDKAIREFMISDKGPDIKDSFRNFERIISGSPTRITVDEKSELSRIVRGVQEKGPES


Target: T1, KaiC (FLAG-seKaiC-1-519)
Assay: other fluorescence titration; fluorescence quenching of KaiB-6IAF: 25 µL of a 50:50 mixture of KaiB:KaiB-6IAF at 7 µM added to 25 µL of serially diluted KaiC in a black clear-bottom 96-well plate; mean intensity followed for 22 h; without KaiA
Conditions: both partners purified

Row | binding result | Binder
1 | binds | KaiB-6IAF (seKaiB-1-102-K25C-FLAG labelled with 6-iodoacetamidofluorescein) (natural protein, Synechococcus elongatus, UniProt Q79PF5 1-102, looked up, 6-(iodoacetamido)fluorescein (6IAF), thiol-reactive fluorophore, on KaiB-K25C, KaiB of Synechococcus elongatus, residues 1-102, with K25C; In the model KaiB is assigned as tetramers; not measured here; also called fluorescent KaiB; fluorescently labeled KaiB) MSPRKTYILKLYVAGNTPNSVRALCTLKNILEVEFQGVYALKVIDVLKNPQLAEEDKILATPTLAKVLPLPVRRIIGDLSDREKVLIGLDLLYGELQDSDDF
2 | binds | KaiB (seKaiB-1-102-FLAG) (natural protein, Synechococcus elongatus, UniProt Q79PF5 1-102, looked up, KaiB of Synechococcus elongatus, residues 1-102; Present as half of the 50:50 KaiB:KaiB-6IAF mixture; gives no signal of its own; also called unlabelled KaiB) MSPRKTYILKLYVAGNTPNSVRALKTLKNILEVEFQGVYALKVIDVLKNPQLAEEDKILATPTLAKVLPLPVRRIIGDLSDREKVLIGLDLLYGELQDSDDF
